Experimental findings from patent publication US20170291939A1 (Novartis, published 2017) are described below.

One may read the Kd as the equilibrium constant for the complex coming apart. Read a high Kd as a looser complex. For orientation: koff means the rate constant with which the complex falls apart. By kon is commonly meant a measure of how fast the partners come together. The low end stands for slow association, the high end for fast association.

Bounds are passed on as bounds.

Assay [1] addresses T1, human IL-17A biotin (human) (UniProt Q16552).
T1 sequence (chain, biotinylated, site not given): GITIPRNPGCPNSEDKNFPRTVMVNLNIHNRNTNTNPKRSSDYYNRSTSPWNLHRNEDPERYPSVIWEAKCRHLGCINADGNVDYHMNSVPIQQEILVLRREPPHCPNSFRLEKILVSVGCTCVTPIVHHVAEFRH
Put plainly: SPR (Biacore), 25° C., biotinylated ligand. In general terms: In SPR one partner is held on a chip, and binding of the other changes the refractive index at the surface.

The target in assay [2] is T2, recombinant mIL-17A (mouse, UniProt Q62386 26-158).
T2 sequence: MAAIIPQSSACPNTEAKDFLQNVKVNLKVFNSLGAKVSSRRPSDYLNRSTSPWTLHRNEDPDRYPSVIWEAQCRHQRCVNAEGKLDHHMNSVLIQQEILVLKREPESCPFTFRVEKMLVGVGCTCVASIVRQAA
As to the kind of experiment: cell-based or functional assay.

Assay [3] has as its target T3, recombinant huIL-17A (SEQ ID NO: 76) (human, UniProt Q16552 24-155, limits assumed).
T3 sequence: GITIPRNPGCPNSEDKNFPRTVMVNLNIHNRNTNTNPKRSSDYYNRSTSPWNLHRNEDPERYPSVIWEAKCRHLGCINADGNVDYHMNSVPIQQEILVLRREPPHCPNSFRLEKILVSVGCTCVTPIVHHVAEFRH
Put plainly: cell-based or functional assay.

In assay [4] the target is T4, human IL-17A (construct not specified) (human, UniProt Q16552 24-155, limits assumed).
T4 sequence: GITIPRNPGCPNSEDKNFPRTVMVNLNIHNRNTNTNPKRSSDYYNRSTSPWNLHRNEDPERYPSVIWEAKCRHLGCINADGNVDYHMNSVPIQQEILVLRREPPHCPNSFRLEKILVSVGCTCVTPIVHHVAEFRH
As to the kind of experiment: cell-based or functional assay.

The target in assay [5] is T3, recombinant huIL-17A (SEQ ID NO: 76). Put plainly: cell-based or functional assay. This is another data set of the same source.
The target of assay [6] is T4, human IL-17A (construct not specified). As to the kind of experiment: ELISA, coated huIL-17A, long wash. Background: ELISA stands for enzyme-linked immunosorbent assay.
Assay [7] shares this target. Put plainly: ELISA, coated huIL-17A, crude Fab extract.
Assay [8] shares this target. Put plainly: ELISA, coated huIL-17A, then 200 nM XAB1 Fab as competitor.

B1: XAB4T (Fab, part only; not given: CH1 and tag, part only)
heavy, part: EVQLVESGGDLVQPGGSLRLSCAASGFTFSSYWMSWVRQAPGKGLEWVANIKQDGSEKYYVDSVKGRFTISRDNAKNSLYLQMNSLRAEDTAVYYCARDRGSLYYWGQGTLVTVSSGSGGG
light: AIQLTQSPSSLSASVGDRVTITCRPSQGINWELAWYQQKPGKAPKLLIYDASSLEQGVPSRFSGSGSGTDFTLTISSLQPEDFATYYCQQFNSYPLTFGGGTKVEIKRTVAAPSVFIFPPSDEQLKSGTASVVCLLNNFYPREAKVQWKVDNALQSGNSQESVTEQDSKDSTYSLSSTLTLSKADYEKHKVYACEVTHQGLSSPVTKSFNRGEC
In assay [1], B1 gave a Kd of 0.00768 nM, a koff of 3.46e-05 s⁻¹ and a kon of 4.51e+06 M⁻¹ s⁻¹.

B2: XAB3 (antibody, human IgG1, kappa, V domains shown)
VH: EVQLVESGGDLVQPGGSLRLSCAASGFTFSSYWMSWVRQAPGKGLEWVANIKQDGSEKYYVDSVKGRFTISRDNAKNSLYLQMNSLRAEDTAVYYCARDRGSLYYWGQGTLVTVSS
VL: AIQLTQSPSSLSASVGDRVTITCRPSQGIYWELAWYQQKPGKAPKLLIYDASSLEQGVPSRFSGSGSGTDFTLTISSLQPEDFATYYCQQFNSYPLTFGGGTKVEIKR
Regarding B2, the “IC50, KC secretion by CMT-93 cells; mIL-17A (0.15 nM)” value in assay [2] was less than 1 nM. Further, in assay [3], the “IC50, huGROα secretion by BJ cells; rhuIL-17A (0.5 nM)” value is 0.42 nM. In addition, in assay [4], the “EC50, T = 0 weeks” value was determined as 0.04 mg/L and the “EC50, T = 4 weeks at pH 8, 40° C. (forced deamidation)” value was determined as 40 ng/ml. Further, in assay [5], the “IC50, huIL-6 secretion by BJ cells; rhuIL-17A (0.5 nM)” value came to 0.5 nM.

B3: MB491 (Fab, V domains shown)
VH: EVQLVESGGDLVQPGGSLRLSCAASGFTFSSYWMSWVRQAPGKGLEWVANIKQDGSEKYYVDSVKGRFTISRDNAKNSLYLQMNSLRAEDTAVYYCARDRGSLYYWGQGTLVTVSS
VL: AIQLTQSPSSLSASVGDRVTITCRPSQGIFFWLAWYQQKPGKAPKLLIYDASSLENGVPSRFSGSGSGTDFTLTISSLQPEDFATYYCQQFNSYPLTFGGGTKVEIK
notes: Fab variant of XAB1
With B3, the “Off-rate ELISA (normalized to XAB1 Fab)” value in assay [6] was 43 fold. For the same molecule, the “Classic ELISA (normalized to XAB1 Fab)” value in assay [7] was found to be 2.1 fold. For the same molecule, the “Competition ELISA (normalized to XAB1 Fab)” value in assay [8] worked out at 44.2 fold.

B4: XAB5 (antibody, human IgG1, kappa, V domains shown)
VH: EVQLVESGGDLVQPGGSLRLSCAASGFTFSSYWMSWVRQAPGKGLEWVANIKQDGSEKYYVDSVKGRFTISRDNAKNSLYLQMNSLRAEDTAVYYCARDRGSLYYWGQGTLVTVSS
VL: AIQLTQSPSSLSASVGDRVTITCRPSQGINWELAWYQQKPGKAPKLLIYDASSLENGVPSRFSGSGSGTDFTLTISSLQPEDFATYYCQQFNSYPLTFGGGTKVEIKR
On to B4, for which the “IC50, KC secretion by CMT-93 cells; mIL-17A (0.15 nM)” value in assay [2] is 7.8 nM. Moreover, in assay [3], the “IC50, huGROα secretion by BJ cells; rhuIL-17A (0.5 nM)” value was found to be 0.46 nM. In addition, in assay [4], the “EC50, T = 0 weeks” value stood at 0.045 mg/L and the “EC50, T = 4 weeks at pH 8, 40° C. (forced deamidation)” value was found to be 61 ng/ml. Further, the “IC50, huIL-6 secretion by BJ cells; rhuIL-17A (0.5 nM)” value in assay [5] was 0.54 nM.
